Data taken from the supplement of paper PMC11246515.
± gives the standard deviation of the averaged measurements.

Assay: total protein half-life in vivo (active degradation + dilution); higher = more stable protein
[1] = E. coli NCM3722 delta-clpP delta-lon delta-hslV, growth: N-lim chemostat, doubling time 6 h
[2] = E. coli NCM3722 delta-clpP, growth: N-lim chemostat, doubling time 6 h
[3] = E. coli NCM3722 delta-hslV, growth: N-lim chemostat, doubling time 6 h
[4] = E. coli NCM3722 delta-lon, growth: N-lim chemostat, doubling time 6 h
[5] = E. coli NCM3722 delta-smpB, growth: N-lim chemostat, doubling time 6 h
[6] = wild type E. coli NCM3722, growth: C-lim chemostat, doubling time 3 h
[7] = wild type E. coli NCM3722, growth: C-lim chemostat, doubling time 6 h
[8] = wild type E. coli NCM3722, growth: C-lim chemostat, doubling time 12 h
[9] = wild type E. coli NCM3722, growth: N-lim chemostat, doubling time 6 h
[10] = wild type E. coli NCM3722, growth: N-lim chemostat, doubling time 12 h
[11] = wild type E. coli NCM3722, growth: P-lim chemostat, doubling time 6 h
[12] = wild type E. coli NCM3722, growth: P-lim chemostat, doubling time 12 h

Row | Sequence | total protein half-life in vivo [1] [h] | total protein half-life in vivo [2] [h] | total protein half-life in vivo [3] [h] | total protein half-life in vivo [4] [h] | total protein half-life in vivo [5] [h] | total protein half-life in vivo [6] [h] | total protein half-life in vivo [7] [h] | total protein half-life in vivo [8] [h] | total protein half-life in vivo [9] [h] | total protein half-life in vivo [10] [h] | total protein half-life in vivo [11] [h] | total protein half-life in vivo [12] [h]
1 | MNIQALLSEKVRQAMIAAGAPADCEPQVRQSAKVQFGDYQANGMMAVAKKLGMAPRQLAEQVLTHLDLNGIASKVEIAGPGFINIFLDPAFLAEHVQQALASDRLGVATPEKQTIVVDYSAPNVAKEMHVGHLRSTIIGDAAVRTLEFLGHKVIRANHVGDWGTQFGMLIAWLEKQQQENAGEMELADLEGFYRDAKKHYDEDEEFAERARNYVVKLQSGDEYFREMWRKLVDITMTQNQITYDRLNVTLTRDDVMGESLYNPMLPGIVADLKAKGLAVESEGATVVFLDEFKNKEGEPMGVIIQKKDGGYLYTTTDIACAKYRYETLHADRVLYYIDSRQHQHLMQAWAIVRKAGYVPESVPLEHHMFGMMLGKDGKPFKTRAGGTVKLADLLDEALERARRLVAEKNPDMPADELEKLANAVGIGAVKYADLSKNRTTDYIFDWDNMLAFEGNTAPYMQYAYTRVLSVFRKAEIDEEQLAAAPVIIREDREAQLAARLLQFEETLTVVAREGTPHVMCAYLYDLAGLFSGFYEHCPILSAENEEVRNSRLKLAQLTAKTLKLGLDTLGIETVERM | 5.58 ± 1.2 | 4.719 ± 0.0071 | 4.73 ± 0.089 | 5.12 ± 0.092 | 4.66 ± 0.21 | 3.13 ± 0.036 | 5.89 ± 0.47 | 10.2 ± 0.2 | 4.48 ± 0.06 | 7.82 ± 0.086 | 6.03 ± 0.33 | 12 ± 0.36
2 | MNIQCKRVYDPAEQSDGYRILVDRLWPRGIKKTDLALDEWDKEITPSTELRKAFHGEVVDYATFREQYLAELAQHEQEGKRLADIAKKQPLTLLYSAKNTTQNHALVLADWLRSL | 6.74 ± 1.5 | 5.27 | 3.16 ± 0.34 | 4.88 ± 0.48 | 3.51 ± 0.47 | 2.37 ± 0.59 | 4.57 | 4.54 ± 0.79 | 3.27 | 4.71 | 3.11 | 5.24 ± 1.4
3 | MNIRPLHDRVIVKRKEVETKSAGGIVLTGSAAAKSTRGEVLAVGNGRILENGEVKPLDVKVGDIVIFNDGYGVKSEKIDNEEVLIMSESDILAIVEA [P0A6F9] | 5.5416 ± 0.005 | 5.34 ± 0.43 | 5.26 ± 0.4 | 6.18 ± 0.9 | 5.092 ± 0.02 | 3.051 ± 0.0027 | 6.27 ± 0.87 | 10.6 ± 1.3 | 5.03 ± 0.15 | 8.21 ± 0.97 | 5.36 ± 0.23 | 12.5 ± 1.7
4 | MNITATVLLAFGMSMDAFAASIGKGATLHKPKFSEALRTGLIFGAVETLTPLIGWGMGMLASRFVLEWNHWIAFVLLIFLGGRMIIEGFRGADDEDEEPRRRHGFWLLVTTAIATSLDAMAVGVGLAFLQVNIIATALAIGCATLIMSTLGMMVGRFIGSIIGKKAEILGGLVLIGIGVQILWTHFHG | – | – | 5.5 | – | – | – | – | – | – | – | – | 8.23
5 | MNITPFPTLSPATIDAINVIGQWLAQDDFSGEVPYQADCVILAGNAVMPTIDAACKIARDQQIPLLISGGIGHSTTFLYSAIAQHPHYNTIRTTGRAEATILADIAHQFWHIPHEKIWIEDQSTNCGENARFSIALLNQAVERVHTAIVVQDPTMQRRTMATFRRMTGDNPDAPRWLSYPGFVPQLGNNADSVIFINQLQGLWPVERYLSLLTGELPRLRDDSDGYGPRGRDFIVHVDFPAEVIHAWQTLKHDAVLIEAMESRSLR | 5.66 ± 0.067 | 4.38 ± 0.065 | 3.92 ± 0.042 | 4.66 ± 0.2 | 3.96 ± 0.27 | > 4 | 5.74 ± 0.29 | 10.9 ± 1.3 | 4.35 ± 0.28 | 6.81 ± 1.1 | 6.023 ± 0.049 | 11.4 ± 0.21
6 | MNIVDQQTFRDAMSCMGAAVNIITTDGPAGRAGFTASAVCSVTDTPPTLLVCLNRGASVWPAFNENRTLCVNTLSAGQEPLSNLFGGKTPMEHRFAAARWQTGVTGCPQLEEALVSFDCRISQVVSVGTHDILFCAIEAIHRHTTPYGLVWFDRSYHALMRPAC | 5.375 ± 0.033 | 0.819 ± 0.077 | 0.419 | 0.406 | 0.684 ± 0.19 | – | – | – | 0.452 | 1.16 | – | –
7 | MNKAIKVSLYISFVLIICALSKNIMMLNTSDFGRAIKPLIEDIPAFTYDLPLLYKLKGHIDSIDSYEYISSYSYILYTYVLFISIFTEYLDARVLSLFLKVIYIYSLYAIFTSYIKTERYVTLFTFFILAFLMCSSSTLSMFASFYQEQIVIIFLPFLVYSLTCKNNKSMLLLFFSLLIISTAKNQFILTPLIVYSYYIFFDRHKLIIKSVICVVCLLASIFAISYSKGVVELNKYHATYFGSYLYMKNNGYKMPSYVDDKCVGLDAWGNKFDISFGATPTEVGTECFESHKDETFSNALFLLVSKPSTIFKLPFDDGVMSQYKENYFHVYKKLHVIYGESNILTTITNIKDNIFKNIRFISLLLFFIASIFIRNNKIKASLFVVSLFGISQFYVSFFGEGYRDLSKHLFGMYFSFDLCLYITVVFLIYKIIQRNQDNSDVKH | 5.64 | 6.29 ± 1.9 | 5.24 ± 0.26 | 4.87 ± 0.47 | 4.88 ± 0.4 | – | 6.387 ± 0.036 | 12 | 5.59 ± 0.57 | 9.92 ± 2.3 | 5.62 ± 0.53 | 10.2 ± 1.1
8 | MNKDEAGGNWKQFKGKVKEQWGKLTDDDMTIIEGKRDQLVGKIQERYGYQKDQAEKEVVDWETRNEYRW | 6.99 ± 1.3 | 4.33 ± 0.086 | 4.42 | 6.177 ± 0.038 | 3.64 ± 0.25 | – | – | 11 ± 3.5 | 3.59 ± 0.14 | 6.53 ± 1.5 | 3.72 ± 0.58 | 6.92 ± 0.27
9 | MNKEQSADDPSVDLIRVKNMLNSTISMSYPDVVIACIEHKVSLEAFRAIEAALVKHDNNMKDYSLVVD | > 8 | – | > 8 | > 8 | – | 2.94 ± 0.043 | – | 9.95 | – | 10.8 ± 6 | 4.21 | –
